Patent US20260034246A1 (REGENXBIO, published 2026)

Assays:
[1] = molecular target: T1, Mouse Complement C5 Protein (mouse, UniProt P06684 19-1680, limits assumed, biotinylated in the Octet assay (sites not given)); experiment: BLI (OctetRED384), biotinylated mouse C5 on SA biosensor, BB5.1 scFv.LH as analyte, 30 C
T1 construct: native C5 of normal mouse serum in the hemolysis assays; also called Mouse C5; mC5

[2] = molecular target: T1, Mouse Complement C5 Protein; experiment: BLI (OctetRED384), biotinylated mouse C5 on SA biosensor, Crovalimab IgG as analyte, 30 C
Experimental: (§1) The assay was performed at 30° C. and at 1000 rpm. Biotinylated mouse C5 antigen was firstly immobilized onto SA biosensor.

[3] = molecular target: T2, Cyno Complement C5 Protein (cynomolgous macaque); experiment: BLI (OctetRED384), biotinylated cyno C5 on SA biosensor, Crovalimab IgG as analyte, 30 C
T2 construct: also called Cyno C5; Biotinylated cyno C5 antigen
Experimental: The assay was performed at 30° C. and at 1000 rpm. Biotinylated cyno C5 antigen was firstly immobilized onto SA biosensor.

[4] = molecular target: T2, Cyno Complement C5 Protein; experiment: BLI (OctetRED384), biotinylated cyno C5 on SA biosensor, Crovalimab-Fab-His6 as analyte, 30 C
[5] = molecular target: T1, Mouse Complement C5 Protein; experiment: BLI (OctetRED384), biotinylated mouse C5 on SA biosensor, Crovalimab-Fab-His6 as analyte, 30 C
Experimental: as §1

[6] = molecular target: T2, Cyno Complement C5 Protein; experiment: BLI (OctetRED384), biotinylated cyno C5 on SA biosensor, Crovalimab scFv.HL as analyte, 30 C
[7] = molecular target: T1, Mouse Complement C5 Protein; experiment: BLI (OctetRED384), biotinylated mouse C5 on SA biosensor, Crovalimab scFv.HL as analyte, 30 C
Experimental: as §1

[8] = molecular target: T1, Mouse Complement C5 Protein; experiment: BLI (OctetRED384), biotinylated mouse C5 on SA biosensor, BB5.1 IgG as analyte, 30 C
Experimental: as §1

[9] = molecular target: T1, Mouse Complement C5 Protein; experiment: BLI (OctetRED384), biotinylated mouse C5 on SA biosensor, BB5.1-Fab-His6 as analyte, 30 C
Experimental: as §1

B1: BB5.1 scFv.LH (scFv)
scFv: NIMMTQSPSSLAVSAGEKVTMSCKSSQSVLYSSNQKNYLAWYQQKPGQSPKLLIYWASTRESGVPDRFTGSGSGTDFTLTISSVQAEDLAVYYCHQYLSSRTFGGGTKLEIKRGGGGSGGGGSGGGGSQVQLQQPGAELVRPGTSVKLSCKASGYTFTSSWMHWVKQRPGQGLEWIGVIDPSDSYTNYNQKFKGKATLTVDTSSSTAYMQLSSLTSEDSAVYYCARGGGSSYNRYFDVWGTGTTVTVSS
notes: also called Anti-mC5 scFV; BB5.1 scFv mAb
**Q.** For B1, which Kd [1] is on record?
**A.** 3690 pM

B2: Crovalimab IgG (full-length mAb) (antibody, V domains shown)
VH: QVQLVESGGGLVQPGRSLRLSCAASGFTVHSSYYMAWVRQAPGKGLEWVGAIFTGSGAEYKAEWAKGRVTISKDTSKNQVVLTMTNMDPVDTATYYCASDAGYDYPTHAMHYWGQGTLVTVSS
VL: DIQMTQSPSSLSASVGDRVTITCRASQGISSSLAWYQQKPGKAPKLLIYGASETESGVPSRFSGSGSGTDFTLTISSLQPEDFATYYCQNTKVGSSYGNTFGGGTKVEIKR
notes: also called Anti-hC5 IgG; Crovalimab full-length mAb
**Q.** B2 was tested. Which Kd [2] did it give?
**A.** 22.9 pM

**Q.** And the Kd [3]?
**A.** 13.1 pM

B3: Crovalimab-Fab-His6 (Fab, V domains shown)
VH: B2 VH
VL: B2 VL
notes: also called Anti-hC5 Fab; Crovalimab Fab mAb
**Q.** What does the source list for B3?
**A.** Kd [4]: 60.2 pM; Kd [5]: 4140 pM

B4: Crovalimab scFv.HL (scFv)
scFv: QVQLVESGGGLVQPGRSLRLSCAASGFTVHSSYYMAWVRQAPGKGLEWVGAIFTGSGAEYKAEWAKGRVTISKDTSKNQVVLTMTNMDPVDTATYYCASDAGYDYPTHAMHYWGQGTLVTVSSGGGGSGGGGSGGGGSDIQMTQSPSSLSASVGDRVTITCRASQGISSSLAWYQQKPGKAPKLLIYGASETESGVPSRFSGSGSGTDFTLTISSLQPEDFATYYCQNTKVGSSYGNTFGGGTKVEIKR
notes: also called Anti-hC5 scFV; Crovalimab scFv mAb
**Q.** What does the source list for B4?
**A.** Kd [6]: 84.5 pM; Kd [7]: 4540 pM

B5: BB5.1 IgG (full-length mAb) (antibody, V domains shown)
VH: QVQLQQPGAELVRPGTSVKLSCKASGYTFTSSWMHWVKQRPGQGLEWIGVIDPSDSYTNYNQKFKGKATLTVDTSSSTAYMQLSSLTSEDSAVYYCARGGGSSYNRYFDVWGTGTTVTVSS
VL: NIMMTQSPSSLAVSAGEKVTMSCKSSQSVLYSSNQKNYLAWYQQKPGQSPKLLIYWASTRESGVPDRFTGSGSGTDFTLTISSVQAEDLAVYYCHQYLSSRTFGGGTKLEIKR
notes: Surrogate anti-mouse C5 mAb; purified recombinant protein expressed in HEK293 cells; also called Anti-mC5 IgG; BB5.1 full-length mAb
**Q.** Which Kd [8] does the source give for B5 here?
**A.** 12.1 pM

B6: BB5.1-Fab-His6 (Fab, V domains shown)
VH: B5 VH
VL: B5 VL
notes: also called Anti-mC5 Fab; BB5.1 Fab mAb
**Q.** B6 was tested. Which Kd [9] did it give?
**A.** 3470 pM
